Assays:
[1] = target: c-Met (endogenous, on human cell lines 184B5, HCT-116, DU-145 and NCI H441) (human) (UniProt P08581); assay: cell-based or functional assay
[2] = target: c-Met/Fc Chimera (R&D Systems, catalog # 358-MT-100) (human) (UniProt P08581); assay: competition ELISA: displacement of biotinylated HGF from plate-coated c-Met/Fc chimera, IgG, n = 2
[3] = target: biotinylated c-Met-Fc (R&D Systems, #358-MT-100/CF, 5.1 biotin per c-Met molecule) (human) (UniProt P08581); assay: SPR (BIAcore), biotinylated c-Met-Fc captured on streptavidin chip, IgG as analyte, bivalent model
[4] = target: c-Met/Fc Chimera (R&D Systems, catalog # 358-MT-100) (human) (UniProt P08581); assay: competition ELISA: displacement of biotinylated HGF from plate-coated c-Met/Fc chimera, Fab, n = 2
[5] = target: c-Met/Fc Chimera (R&D Systems, catalog # 358-MT-100) (human) (UniProt P08581); assay: SPR (BIAcore), c-Met-Fc captured on protein A CM5 chip, Fab as analyte, 1:1 Langmuir model

c-Met/Fc Chimera (R&D Systems, catalog # 358-MT-100) (human), sequence (P08581 25-932, stated change not applied): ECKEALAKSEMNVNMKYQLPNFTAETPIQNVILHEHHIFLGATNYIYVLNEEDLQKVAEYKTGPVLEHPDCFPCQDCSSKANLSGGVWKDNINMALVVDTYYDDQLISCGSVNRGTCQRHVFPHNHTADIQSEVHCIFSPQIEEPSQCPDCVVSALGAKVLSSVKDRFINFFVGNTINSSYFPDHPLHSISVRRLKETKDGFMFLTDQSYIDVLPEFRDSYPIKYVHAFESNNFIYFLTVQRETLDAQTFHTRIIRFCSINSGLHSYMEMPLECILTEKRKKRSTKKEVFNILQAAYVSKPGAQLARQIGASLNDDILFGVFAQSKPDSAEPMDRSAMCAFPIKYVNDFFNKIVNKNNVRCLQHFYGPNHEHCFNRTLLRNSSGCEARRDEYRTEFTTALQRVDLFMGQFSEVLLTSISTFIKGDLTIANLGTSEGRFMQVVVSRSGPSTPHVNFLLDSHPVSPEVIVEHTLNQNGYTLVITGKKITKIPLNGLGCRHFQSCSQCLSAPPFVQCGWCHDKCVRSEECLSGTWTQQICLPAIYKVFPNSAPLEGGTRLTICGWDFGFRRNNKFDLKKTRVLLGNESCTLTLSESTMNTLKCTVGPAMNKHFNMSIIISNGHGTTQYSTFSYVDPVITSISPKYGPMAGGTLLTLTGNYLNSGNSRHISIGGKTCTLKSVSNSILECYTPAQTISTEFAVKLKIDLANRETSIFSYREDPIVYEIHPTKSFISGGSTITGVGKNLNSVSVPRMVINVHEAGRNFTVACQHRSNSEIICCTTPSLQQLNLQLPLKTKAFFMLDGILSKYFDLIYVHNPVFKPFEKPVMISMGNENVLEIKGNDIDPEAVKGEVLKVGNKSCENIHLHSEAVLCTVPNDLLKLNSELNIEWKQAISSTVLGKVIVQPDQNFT
biotinylated c-Met-Fc (R&D Systems, #358-MT-100/CF, 5.1 biotin per c-Met molecule) (human), sequence (P08581 25-932): as the sequence (P08581 25-932, stated change not applied) above
c-Met (endogenous, on human cell lines 184B5, HCT-116, DU-145 and NCI H441) (human), sequence (P08581 25-1390): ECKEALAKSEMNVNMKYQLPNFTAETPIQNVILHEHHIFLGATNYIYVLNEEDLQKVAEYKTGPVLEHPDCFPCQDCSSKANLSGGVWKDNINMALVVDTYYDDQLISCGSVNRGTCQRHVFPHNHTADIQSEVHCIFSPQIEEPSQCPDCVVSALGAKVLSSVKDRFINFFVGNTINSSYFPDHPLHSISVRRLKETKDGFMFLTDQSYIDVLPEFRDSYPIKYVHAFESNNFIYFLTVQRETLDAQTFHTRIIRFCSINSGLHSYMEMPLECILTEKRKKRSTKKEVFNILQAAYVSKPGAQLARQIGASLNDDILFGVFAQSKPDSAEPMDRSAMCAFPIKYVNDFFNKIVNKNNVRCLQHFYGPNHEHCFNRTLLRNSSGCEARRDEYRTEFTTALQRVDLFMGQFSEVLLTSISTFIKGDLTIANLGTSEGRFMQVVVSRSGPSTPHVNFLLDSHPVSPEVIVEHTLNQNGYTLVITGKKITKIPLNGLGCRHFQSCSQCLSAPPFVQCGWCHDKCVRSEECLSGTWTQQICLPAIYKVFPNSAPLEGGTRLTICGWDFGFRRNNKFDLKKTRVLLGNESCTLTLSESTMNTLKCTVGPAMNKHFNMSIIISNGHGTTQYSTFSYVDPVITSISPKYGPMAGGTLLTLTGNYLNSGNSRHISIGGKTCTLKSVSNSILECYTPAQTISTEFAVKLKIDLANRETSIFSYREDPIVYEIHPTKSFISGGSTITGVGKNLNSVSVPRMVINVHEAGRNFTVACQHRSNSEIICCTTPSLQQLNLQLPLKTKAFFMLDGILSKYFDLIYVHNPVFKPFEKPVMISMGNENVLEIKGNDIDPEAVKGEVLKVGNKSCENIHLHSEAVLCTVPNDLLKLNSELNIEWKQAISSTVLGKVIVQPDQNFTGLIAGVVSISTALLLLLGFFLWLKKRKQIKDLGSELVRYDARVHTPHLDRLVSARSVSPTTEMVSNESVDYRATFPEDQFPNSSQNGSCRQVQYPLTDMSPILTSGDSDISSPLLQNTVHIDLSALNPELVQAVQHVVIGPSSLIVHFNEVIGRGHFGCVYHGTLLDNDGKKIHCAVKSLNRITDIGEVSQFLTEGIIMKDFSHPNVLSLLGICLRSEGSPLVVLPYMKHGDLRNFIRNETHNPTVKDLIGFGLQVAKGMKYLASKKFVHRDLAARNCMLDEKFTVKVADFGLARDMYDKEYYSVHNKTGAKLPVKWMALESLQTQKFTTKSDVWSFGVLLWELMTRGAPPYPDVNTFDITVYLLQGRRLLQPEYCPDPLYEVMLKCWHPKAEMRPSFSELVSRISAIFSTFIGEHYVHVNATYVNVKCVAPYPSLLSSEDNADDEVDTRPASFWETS

Substance: recombinant human HGF (rhHGF, R&D Systems) (from UniProt P14210 32-728) (ligand)
- scatter assay on DU-145 cells, mean object area, 30 pM HGF alone, IgG series; the smaller the number, the more scattering (mean object area) [1]: 324
- scatter assay on DU-145 cells, mean object area, media alone with 30 pM HGF (no antibody or Fab), Fab series; the smaller the number, the more scattering (mean object area) [1]: 352

Substance: c-Met antibody 1A3.3.13 (#HB-11894, ATCC Hybridoma), IgG
- IC50 [2]: 0.5 nM
- Kd [3]: 1.4 nM
- koff [3]: 0.000289 s⁻¹
- kon [3]: 210000 M⁻¹ s⁻¹
- scatter assay on DU-145 cells, mean object area, agonist (alone), 100 nM IgG; the smaller the number, the more scattering (mean object area) [1]: 305
- scatter assay on DU-145 cells, mean object area, antagonist (w/30 pM HGF), 100 nM IgG; the smaller the number, the more scattering (mean object area) [1]: 254

Substance: HB94 (#HB-94, ATCC Hybridoma), IgG columns of Tables 9 and 10 (antibody)
- scatter assay on DU-145 cells, mean object area, agonist (alone), 100 nM, IgG column; the smaller the number, the more scattering (mean object area) [1]: 365
- scatter assay on DU-145 cells, mean object area, antagonist (w/30 pM HGF), 100 nM, IgG column; the smaller the number, the more scattering (mean object area) [1]: 199

Substance: c-Met antibody 1A3.3.13 (#HB-11894, ATCC Hybridoma), Fab
- IC50 [4]: 6.83 nM
- scatter assay on DU-145 cells, mean object area, agonist (alone), 100 nM Fab; the smaller the number, the more scattering (mean object area) [1]: 597
- scatter assay on DU-145 cells, mean object area, antagonist (w/30 pM HGF), 100 nM Fab; the smaller the number, the more scattering (mean object area) [1]: 400
- Kd [5]: 6.3 nM
- koff [5]: 0.00313 s⁻¹
- kon [5]: 497000 M⁻¹ s⁻¹

Substance: c-Met antibody 5D5.11.6 (#HB-11895, ATCC Hybridoma), Fab
- IC50 [4]: 9.72 nM
- scatter assay on DU-145 cells, mean object area, agonist (alone), 100 nM Fab; the smaller the number, the more scattering (mean object area) [1]: 632
- scatter assay on DU-145 cells, mean object area, antagonist (w/30 pM HGF), 100 nM Fab; the smaller the number, the more scattering (mean object area) [1]: 592
- Kd [5]: 1 nM
- koff [5]: 0.000129 s⁻¹
- kon [5]: 126000 M⁻¹ s⁻¹

Substance: HB-94 (#HB-94, ATCC Hybridoma) converted into a Fab fragment, Fab isotype control
- scatter assay on DU-145 cells, mean object area, agonist (alone), 100 nM Fab; the smaller the number, the more scattering (mean object area) [1]: 592
- scatter assay on DU-145 cells, mean object area, antagonist (w/30 pM HGF), 100 nM Fab; the smaller the number, the more scattering (mean object area) [1]: 478

Substance: c-Met antibody 5D5.11.6 (#HB-11895, ATCC Hybridoma), IgG
- Kd [3]: 5.9 nM
- koff [3]: 0.000406 s⁻¹
- kon [3]: 68800 M⁻¹ s⁻¹
- scatter assay on DU-145 cells, mean object area, agonist (alone), 100 nM IgG; the smaller the number, the more scattering (mean object area) [1]: 239
- scatter assay on DU-145 cells, mean object area, antagonist (w/30 pM HGF), 100 nM IgG; the smaller the number, the more scattering (mean object area) [1]: 241
